# Data taken from patent US20220372120A1 (GEMINI THERAPEUTICS SUB, published 2022).
# Positions count from the first letter of the chain named. “And” between values parts separate entries of the source, which are not always exact repeats. Identical values can stand only once.
# B1: FHR-1.3B4 (antibody, V domains shown)
# VH: QVQLRQSGPGLVQPSQSLSITCTVSGFSLTNYGVYWVRQSPGKGLEWLGVIWSGGTTDYSAAFISRLSISKDNSKSQVFFKMNSLQADDTAIYYCARNFGNYAMDYWGQGTSVTVSS
# VL: QIVLSQSPTILSASPGEKVTMTCRASSSVTYMHWYQQKPGSSPKPWIYATSNLASGVPARFSGSGSGTSYSLTISRVEAEDAATYYCQQRSSSNPLTFGAGTKLELK
# notes: Mouse monoclonal antibody raised in BALB/c mice against recombinant human FHR-1 (hybridoma); kappa light chain implied by capture on rat anti-mouse kappa RM19; also called anti-FHR-1.3B4; anti-FHR-1 3B4
# B2: Antibody 1 (antibody, V domains shown)
# VH: QVQLQESGPGLVKPSQTLSLTCTVSGFSLTNYGVYWIRQHPGKGLEWIGVVWSGGTTEFNPSLKSRVTISKDTSKNQVSLKLSSVTAADTAVYYCARNFGNYAMDYWGQGTSVTVSS
# VL: DIQLTQSPSSLSASVGDRVTITCKASSSVTYLHWYQQKPGKAPKPLIYATSNLASGVPSRFSGSGSGTDFTLTISSLQPEDFATYYCQHRSSSNPLTFGAGTKLELK
# B3: Antibody 3 (antibody, V domains shown)
# VH: B2 VH
# VL: B2 VL with K24R, S27T, L32M, T50S
# B4: Antibody 4 (antibody, V domains shown)
# VH: B2 VH with V51I, F59Y, L63M, Y106F
# VL: B2 VL with K24R, S27T, L32M, T50S
# B5: Antibody 2 (antibody, V domains shown)
# VH: B2 VH with V51I, F59Y, L63M, Y106F
# VL: B2 VL
# Biological target: T1, Human purified factor H (human, UniProt P08603 19-1231)
# Assay: cell-based or functional assay
# T1 sequence (P08603 19-1231): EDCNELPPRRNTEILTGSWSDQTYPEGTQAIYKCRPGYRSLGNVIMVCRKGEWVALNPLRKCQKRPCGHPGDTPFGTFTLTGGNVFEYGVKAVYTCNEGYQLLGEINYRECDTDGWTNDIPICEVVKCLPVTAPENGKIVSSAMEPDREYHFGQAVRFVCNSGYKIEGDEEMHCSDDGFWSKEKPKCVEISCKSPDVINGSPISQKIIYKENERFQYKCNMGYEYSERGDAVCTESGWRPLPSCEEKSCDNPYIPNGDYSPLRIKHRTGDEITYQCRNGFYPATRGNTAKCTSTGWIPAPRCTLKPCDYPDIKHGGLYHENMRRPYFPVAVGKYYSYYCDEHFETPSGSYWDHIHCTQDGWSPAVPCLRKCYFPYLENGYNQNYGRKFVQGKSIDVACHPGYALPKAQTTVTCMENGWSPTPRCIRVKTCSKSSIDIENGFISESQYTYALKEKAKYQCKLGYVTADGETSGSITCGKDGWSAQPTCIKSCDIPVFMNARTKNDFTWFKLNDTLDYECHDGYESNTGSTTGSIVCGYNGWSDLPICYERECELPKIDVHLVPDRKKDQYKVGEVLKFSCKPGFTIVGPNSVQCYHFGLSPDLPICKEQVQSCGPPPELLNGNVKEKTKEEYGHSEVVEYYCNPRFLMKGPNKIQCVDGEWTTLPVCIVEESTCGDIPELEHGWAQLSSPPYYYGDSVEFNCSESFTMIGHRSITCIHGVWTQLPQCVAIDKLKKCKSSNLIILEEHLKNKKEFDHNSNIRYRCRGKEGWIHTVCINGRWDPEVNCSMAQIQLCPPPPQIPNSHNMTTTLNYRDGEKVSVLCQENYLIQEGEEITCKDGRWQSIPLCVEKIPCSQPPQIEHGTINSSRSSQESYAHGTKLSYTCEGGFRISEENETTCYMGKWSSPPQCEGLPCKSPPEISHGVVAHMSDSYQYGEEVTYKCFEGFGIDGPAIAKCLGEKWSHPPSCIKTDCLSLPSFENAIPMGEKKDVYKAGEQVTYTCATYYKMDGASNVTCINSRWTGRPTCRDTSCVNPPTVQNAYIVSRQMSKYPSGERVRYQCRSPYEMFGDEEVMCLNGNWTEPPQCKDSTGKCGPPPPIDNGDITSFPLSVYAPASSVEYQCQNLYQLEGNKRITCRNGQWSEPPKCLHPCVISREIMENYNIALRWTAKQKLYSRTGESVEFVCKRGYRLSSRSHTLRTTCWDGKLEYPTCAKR
row,Molecule,"IC50 of inhibition of SRBC hemolysis, 10% human serum with anti-FH.09"
1,B1,11.4 ug/ml and 76 nM
2,B2,10.6 ug/ml and 70.7 nM
3,B3,9.4 ug/ml and 62.7 nM
4,B4,11.5 ug/ml and 76.7 nM
5,B5,10.1 ug/ml and 67.3 nM

# Biological target: T1, Human purified factor H
# Assay: SPR (BiaCore T200), antibody captured on Protein A or Protein G chip, full length FH flowed over
# Description: To determine binding affinity of Antibodies 1-4, surface plasmon resonance (SPR) experiments were performed using a BiaCore T200 (GE Healthcare) and CMS sensor chips (GE Healthcare) in accordance with the manufacturer's instructions. Briefly, Antibodies […] or anti-FHR-1.3B4 were captured onto a Protein A or Protein G coupled chip and full length FH was flown over the captured moAB at decreasing concentrations.
Molecule,Kd,koff,kon
B1,0.91 nM,5.32e-05 s⁻¹,59500 M⁻¹ s⁻¹
B2,0.5 nM,2.67e-05 s⁻¹,53800 M⁻¹ s⁻¹
B3,0.85 nM,4.07e-05 s⁻¹,48500 M⁻¹ s⁻¹
B4,0.58 nM,3.14e-05 s⁻¹,55300 M⁻¹ s⁻¹
B5,0.52 nM,3.06e-05 s⁻¹,58500 M⁻¹ s⁻¹

# Biological target: purified C3b (Complement Technologies) (UniProt P01024)
# Assay: SPR (Biacore T200, 37 C), C3b amine-coupled to chip, pdFH injected alone, equilibrium analysis
row,Molecule,Kd
1,Human purified factor H (from UniProt P08603 19-1231),1300 nM

# Biological target: T1, Human purified factor H
# Assay: cell-based or functional assay
# Remark: another data set of the same source
Molecule,"IC50 of inhibition of SRBC hemolysis, first replicate","IC50 of inhibition of SRBC hemolysis, second replicate"
B2,10.7 µg/ml and 71.3 nM,10.9 µg/ml and 72.7 nM
B3,11.1 µg/ml and 74 nM,9.1 µg/ml and 60.7 nM
B4,11.5 µg/ml and 76.5 nM,11.8 µg/ml and 78.5 nM
B5,11.4 µg/ml and 76.3 nM,10.4 µg/ml and 69.3 nM

# Biological target: T1, Human purified factor H
# Assay: cell-based or functional assay
# Remark: another data set of the same source
Molecule,"IC50 of inhibition of C3b deposition on LPS, Replicate 1","IC50 of inhibition of C3b deposition on LPS, Replicate 2"
B2,3.5 µg/ml and 23.4 nM,2.26 µg/ml and 15.1 nM
B3,4.14 µg/ml and 27.6 nM,3.47 µg/ml and 23.1 nM
B4,4.34 µg/ml and 28.9 nM,3.51 µg/ml and 23.4 nM
B5,3.68 µg/ml and 24.5 nM,2.82 µg/ml and 18.8 nM

# Biological target: T1, Human purified factor H
# Assay: cell-based or functional assay
# Remark: another data set of the same source
row,Molecule,"IC50 of inhibition of C3b deposition on LPS, 10% normal human serum"
1,B1,38 nM and 5.7 µg/ml
2,B2,2.26 µg/ml and 15.1 nM
3,B3,3.47 µg/ml and 23.1 nM
4,B4,3.51 µg/ml and 23.4 nM
5,B5,2.82 µg/ml and 18.8 nM
